This assay has as its target T1, integrin α4β7 expressed on transduced human CD4+ T cells (human, UniProt P13612 34-1032; P26010 20-798).
T1 construct: whole, on cells; Endogenous integrin on sorted human CD4+ cells transduced with the GFP or IL-10-GFP retroviral vector; The cells were CFDSE-labelled in the adhesion assay; also called αA4β7; gut-homing molecule α4β7
Briefly: cell adhesion assay with blocking mAbs. Here is the method: Adhesion of sorted CD4⁺ cells, transduced with GFP (1 donor) or IL-10-GFP (2 donors), to MAdCAM-1 transfected 293T cells was determined after preincubation with or without the following mAbs: 145 2C11 (control), act-1 (αA4β7) or MECA-367 (αMAdCAM-1). Fluorescent-labelled CD4⁺ cells were added to a 96 well plate that contained confluent MAdCAM-1 transfected 293T cells or control 293T cells. Relative binding inhibition was referred to the maximum binding achieved in the absence of mAbs (as described in Materials and Methods).
We investigated whether transduced CD4⁺ cells were able to bind to the mucosal addressin MAdCAM-1 measuring their adhesion to 293T cells stably expressing the murine MAdCAM cDNA (kindly provided by Dr. S. Fong, Genentech Inc., San Fransisco, Calif., USA). […] Fluorescence was measured in a Cytofluor plate reader (Perceptive Biosystems, Frarningham, Mass., USA) before and after washing. The adherence was calculated as the percentage of fluorescent cells remaining after washing. The maximum binding was calculated as the difference in adherence to MAdCAM-1 transfected and control 293T cells.

The text below walks through data of US20070053889A1 (AMSTERDAM MOLECULAR THERAPEUTICS AMT IP B V, published 2007).

T1 sequence (P13612 34-1032, chain 1 of 2): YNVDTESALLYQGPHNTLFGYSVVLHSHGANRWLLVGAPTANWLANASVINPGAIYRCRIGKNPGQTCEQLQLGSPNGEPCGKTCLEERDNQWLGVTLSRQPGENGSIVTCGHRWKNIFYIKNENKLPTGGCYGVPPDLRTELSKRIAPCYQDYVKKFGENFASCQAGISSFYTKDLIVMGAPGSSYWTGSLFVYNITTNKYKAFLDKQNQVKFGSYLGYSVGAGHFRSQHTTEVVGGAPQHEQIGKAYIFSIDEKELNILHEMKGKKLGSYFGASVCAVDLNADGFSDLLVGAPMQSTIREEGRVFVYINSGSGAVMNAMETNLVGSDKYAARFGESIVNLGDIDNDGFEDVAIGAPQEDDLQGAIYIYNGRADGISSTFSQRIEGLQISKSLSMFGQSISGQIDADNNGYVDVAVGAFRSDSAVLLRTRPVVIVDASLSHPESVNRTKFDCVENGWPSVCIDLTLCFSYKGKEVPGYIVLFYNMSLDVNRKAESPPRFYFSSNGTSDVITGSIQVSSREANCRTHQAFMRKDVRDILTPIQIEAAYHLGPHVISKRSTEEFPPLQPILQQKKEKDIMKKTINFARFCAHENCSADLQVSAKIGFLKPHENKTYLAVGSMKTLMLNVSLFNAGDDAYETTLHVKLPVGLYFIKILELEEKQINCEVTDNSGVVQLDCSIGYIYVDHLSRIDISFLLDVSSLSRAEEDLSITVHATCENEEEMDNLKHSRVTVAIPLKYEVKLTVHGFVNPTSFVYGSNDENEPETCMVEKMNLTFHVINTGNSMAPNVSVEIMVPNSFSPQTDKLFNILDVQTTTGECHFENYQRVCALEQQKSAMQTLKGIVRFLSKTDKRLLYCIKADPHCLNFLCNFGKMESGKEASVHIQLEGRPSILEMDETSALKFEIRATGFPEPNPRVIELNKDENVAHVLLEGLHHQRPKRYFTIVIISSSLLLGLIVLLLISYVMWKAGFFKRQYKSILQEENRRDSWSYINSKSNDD
T1 sequence (P26010 20-798, chain 2 of 2): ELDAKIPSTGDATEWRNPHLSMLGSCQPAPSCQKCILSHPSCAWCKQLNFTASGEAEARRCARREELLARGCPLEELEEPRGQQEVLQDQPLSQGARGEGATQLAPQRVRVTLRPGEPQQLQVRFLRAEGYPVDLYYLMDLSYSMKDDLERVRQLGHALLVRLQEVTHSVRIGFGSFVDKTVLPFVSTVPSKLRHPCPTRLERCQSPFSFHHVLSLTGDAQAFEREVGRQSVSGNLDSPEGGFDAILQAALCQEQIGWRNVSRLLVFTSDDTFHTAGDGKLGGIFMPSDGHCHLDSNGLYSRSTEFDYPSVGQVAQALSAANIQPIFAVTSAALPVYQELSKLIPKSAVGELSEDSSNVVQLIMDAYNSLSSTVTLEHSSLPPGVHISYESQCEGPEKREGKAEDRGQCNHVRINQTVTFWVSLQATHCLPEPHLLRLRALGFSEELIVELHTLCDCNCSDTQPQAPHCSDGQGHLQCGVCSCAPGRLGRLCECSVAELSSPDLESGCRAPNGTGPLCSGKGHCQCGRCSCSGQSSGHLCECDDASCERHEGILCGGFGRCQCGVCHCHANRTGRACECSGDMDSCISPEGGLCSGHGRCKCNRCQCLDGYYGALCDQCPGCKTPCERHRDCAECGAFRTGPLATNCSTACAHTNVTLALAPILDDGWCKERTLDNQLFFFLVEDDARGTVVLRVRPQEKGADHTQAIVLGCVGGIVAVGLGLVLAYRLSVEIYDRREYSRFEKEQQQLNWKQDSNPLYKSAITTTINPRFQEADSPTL

B1: murine MAdCAM-1 stably expressed on 293T cells (ligand, UniProt Q61826 22-405, looked up)
chain: QSFQVNPPESEVAVAMGTSLQITCSMSCDEGVARVHWRGLDTSLGSVQTLPGSSILSVRGMLSDTGTPVCVGSCGSRSFQHSVKILVYAFPDQLVVSPEFLVPGQDQVVSCTAHNIWPADPNSLSFALLLGEQRLEGAQALEPEQEEEIQEAEGTPLFRMTQRWRLPSLGTPAPPALHCQVTMQLPKLVLTHRKEIPVLQSQTSPKPPNTTSAEPYILTSSSTAEAVSTGLNITTLPSAPPYPKLSPRTLSSEGPCRPKIHQDLEAGWELLCEASCGPGVTVRWTLAPGDLATYHKREAGAQAWLSVLPPGPMVEGWFQCRQDPGGEVTNLYVPGQVTPNSSSTVVLWIGSLVLGLLALVFLAYRLWKCYRPGPRPDTSSCTHL
notes: whole, on cells; 293T cells stably expressing the murine MAdCAM cDNA (from Dr. S. Fong, Genentech); also called mucosal addressin MAdCAM-1
On to B1, for which the binding result is on record as “binds”.
